Assay results reported in PMC8882007, “Syndapin-2 mediated transcytosis of amyloid-β across the blood–brain barrier” (Brain Communications, 2022).

T1: dynamin-2 (mouse (endogenous in bEnd3), UniProt P39054 1-870)
T1 construct: dynamin-2, endogenous in mouse brain endothelial cells (bEnd3); source: endogenous, bEnd3 mouse brain endothelial cells (fixed, permeabilized)
T1 sequence (looked up): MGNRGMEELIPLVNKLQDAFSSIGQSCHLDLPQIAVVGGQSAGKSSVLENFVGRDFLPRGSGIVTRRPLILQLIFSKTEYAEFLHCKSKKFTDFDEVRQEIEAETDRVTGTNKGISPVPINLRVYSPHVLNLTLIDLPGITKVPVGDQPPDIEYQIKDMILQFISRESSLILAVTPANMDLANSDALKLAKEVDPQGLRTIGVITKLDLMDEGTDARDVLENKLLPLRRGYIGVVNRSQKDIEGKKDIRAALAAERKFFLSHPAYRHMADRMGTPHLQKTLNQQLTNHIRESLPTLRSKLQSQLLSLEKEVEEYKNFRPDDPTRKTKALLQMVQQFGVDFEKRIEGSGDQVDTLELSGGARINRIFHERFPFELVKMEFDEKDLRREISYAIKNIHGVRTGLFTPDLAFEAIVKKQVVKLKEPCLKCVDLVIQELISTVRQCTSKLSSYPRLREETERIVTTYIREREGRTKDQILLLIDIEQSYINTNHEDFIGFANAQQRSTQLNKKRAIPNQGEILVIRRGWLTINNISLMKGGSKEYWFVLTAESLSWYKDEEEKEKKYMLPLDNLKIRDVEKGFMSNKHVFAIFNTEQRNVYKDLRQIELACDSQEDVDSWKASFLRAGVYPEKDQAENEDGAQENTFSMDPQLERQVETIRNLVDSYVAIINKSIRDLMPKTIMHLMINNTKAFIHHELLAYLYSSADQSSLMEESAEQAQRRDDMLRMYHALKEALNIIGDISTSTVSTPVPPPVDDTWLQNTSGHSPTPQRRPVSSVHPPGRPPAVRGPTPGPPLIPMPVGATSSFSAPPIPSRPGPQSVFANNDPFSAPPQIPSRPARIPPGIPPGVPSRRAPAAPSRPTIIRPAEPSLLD

T2: EEA-1 (mouse (endogenous in bEnd3), UniProt Q8BL66 1-1411)
T2 construct: EEA-1 (early endosome marker), endogenous in mouse brain endothelial cells (bEnd3); also called early endosomes (EEA-1); source: endogenous, bEnd3 mouse brain endothelial cells (fixed, permeabilized)
T2 sequence (looked up): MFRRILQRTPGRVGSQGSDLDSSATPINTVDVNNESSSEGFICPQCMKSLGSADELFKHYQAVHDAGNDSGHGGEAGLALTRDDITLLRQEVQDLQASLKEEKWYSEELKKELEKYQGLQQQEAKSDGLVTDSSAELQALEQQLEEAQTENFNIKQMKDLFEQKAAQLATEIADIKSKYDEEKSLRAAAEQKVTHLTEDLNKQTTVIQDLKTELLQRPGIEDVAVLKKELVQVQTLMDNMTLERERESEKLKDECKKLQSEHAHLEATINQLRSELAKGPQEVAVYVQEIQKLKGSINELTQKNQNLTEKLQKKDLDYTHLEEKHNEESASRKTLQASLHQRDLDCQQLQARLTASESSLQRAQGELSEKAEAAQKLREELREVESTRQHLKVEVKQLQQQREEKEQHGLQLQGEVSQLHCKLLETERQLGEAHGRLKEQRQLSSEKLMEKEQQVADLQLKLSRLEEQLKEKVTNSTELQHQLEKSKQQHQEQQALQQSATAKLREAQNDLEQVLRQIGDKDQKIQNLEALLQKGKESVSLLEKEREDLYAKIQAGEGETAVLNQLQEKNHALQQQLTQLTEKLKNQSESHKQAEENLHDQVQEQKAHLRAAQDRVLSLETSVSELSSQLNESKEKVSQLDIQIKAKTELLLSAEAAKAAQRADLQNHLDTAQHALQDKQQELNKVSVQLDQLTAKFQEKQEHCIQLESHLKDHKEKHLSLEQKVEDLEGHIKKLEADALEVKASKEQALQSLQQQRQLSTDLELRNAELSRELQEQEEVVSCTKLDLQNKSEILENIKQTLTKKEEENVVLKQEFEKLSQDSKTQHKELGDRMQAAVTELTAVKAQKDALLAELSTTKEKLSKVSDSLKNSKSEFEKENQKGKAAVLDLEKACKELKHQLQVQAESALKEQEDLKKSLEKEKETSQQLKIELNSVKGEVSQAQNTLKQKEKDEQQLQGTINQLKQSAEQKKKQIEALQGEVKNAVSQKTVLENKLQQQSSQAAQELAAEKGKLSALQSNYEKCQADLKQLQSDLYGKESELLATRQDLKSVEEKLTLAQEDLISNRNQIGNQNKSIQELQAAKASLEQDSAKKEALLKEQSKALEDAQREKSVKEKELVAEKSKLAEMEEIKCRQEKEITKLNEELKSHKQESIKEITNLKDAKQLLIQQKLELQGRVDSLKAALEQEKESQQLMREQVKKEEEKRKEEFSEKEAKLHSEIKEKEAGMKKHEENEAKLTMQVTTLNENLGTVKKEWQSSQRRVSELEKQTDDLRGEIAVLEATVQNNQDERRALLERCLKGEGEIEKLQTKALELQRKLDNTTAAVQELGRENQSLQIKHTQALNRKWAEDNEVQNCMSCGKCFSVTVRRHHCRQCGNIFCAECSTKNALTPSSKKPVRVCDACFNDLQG

B1: apolipoprotein E (ligand, mouse (endogenous in bEnd3), UniProt P08226 19-311, looked up)
chain: EGEPEVTDQLEWQSNQPWEQALNRFWDYLRWVQTLSDQVQEELQSSQVTQELTALMEDTMTEVKAYKKELEEQLGPVAEETRARLGKEVQAAQARLGADMEDLRNRLGQYRNEVHTMLGQSTEEIRARLSTHLRKMRKRLMRDAEDLQKRLAVYKAGAREGAERGVSAIRERLGPLVEQGRQRTANLGAGAAQPLRDRAQAFGDRIRGRLEEVGNQARDRLEEVREHMEEVRSKMEEQTQQIRLQAEIFQARLKGWFEPIVEDMHRQWANLMEKIQASVATNPIITPVAQENQ
notes: apolipoprotein E (ApoE), detected in mouse brain endothelial cells (bEnd3); also called ApoE; source: endogenous, bEnd3 mouse brain endothelial cells (fixed, permeabilized)

What was measured:
Test in all cases: proximity ligation; Duolink PLA between two endogenous proteins in polarized bEnd3 monolayers, fixed in 4% PFA and permeabilized with 0.1% Triton X-100; two primary antibodies overnight at 4°C; PLA signal normalized by the number of nuclei; also in shRNA control (scramble) and syndapin-2 knockdown cells, and after FAM-Aβ (1–40) or Aβ monomers, oligomers or fibrils for 15 min
Details in all cases: partners not purified
[1] = biological target: T3, low-density lipoprotein receptor-related protein 1 (mouse (endogenous in bEnd3), UniProt Q91ZX7 20-4545)
T3 construct: low-density lipoprotein receptor-related protein 1 (LRP1), endogenous in mouse brain endothelial cells (bEnd3); also called LRP1; source: endogenous, bEnd3 mouse brain endothelial cells (fixed, permeabilized)
T3 sequence (Q91ZX7 20-4545): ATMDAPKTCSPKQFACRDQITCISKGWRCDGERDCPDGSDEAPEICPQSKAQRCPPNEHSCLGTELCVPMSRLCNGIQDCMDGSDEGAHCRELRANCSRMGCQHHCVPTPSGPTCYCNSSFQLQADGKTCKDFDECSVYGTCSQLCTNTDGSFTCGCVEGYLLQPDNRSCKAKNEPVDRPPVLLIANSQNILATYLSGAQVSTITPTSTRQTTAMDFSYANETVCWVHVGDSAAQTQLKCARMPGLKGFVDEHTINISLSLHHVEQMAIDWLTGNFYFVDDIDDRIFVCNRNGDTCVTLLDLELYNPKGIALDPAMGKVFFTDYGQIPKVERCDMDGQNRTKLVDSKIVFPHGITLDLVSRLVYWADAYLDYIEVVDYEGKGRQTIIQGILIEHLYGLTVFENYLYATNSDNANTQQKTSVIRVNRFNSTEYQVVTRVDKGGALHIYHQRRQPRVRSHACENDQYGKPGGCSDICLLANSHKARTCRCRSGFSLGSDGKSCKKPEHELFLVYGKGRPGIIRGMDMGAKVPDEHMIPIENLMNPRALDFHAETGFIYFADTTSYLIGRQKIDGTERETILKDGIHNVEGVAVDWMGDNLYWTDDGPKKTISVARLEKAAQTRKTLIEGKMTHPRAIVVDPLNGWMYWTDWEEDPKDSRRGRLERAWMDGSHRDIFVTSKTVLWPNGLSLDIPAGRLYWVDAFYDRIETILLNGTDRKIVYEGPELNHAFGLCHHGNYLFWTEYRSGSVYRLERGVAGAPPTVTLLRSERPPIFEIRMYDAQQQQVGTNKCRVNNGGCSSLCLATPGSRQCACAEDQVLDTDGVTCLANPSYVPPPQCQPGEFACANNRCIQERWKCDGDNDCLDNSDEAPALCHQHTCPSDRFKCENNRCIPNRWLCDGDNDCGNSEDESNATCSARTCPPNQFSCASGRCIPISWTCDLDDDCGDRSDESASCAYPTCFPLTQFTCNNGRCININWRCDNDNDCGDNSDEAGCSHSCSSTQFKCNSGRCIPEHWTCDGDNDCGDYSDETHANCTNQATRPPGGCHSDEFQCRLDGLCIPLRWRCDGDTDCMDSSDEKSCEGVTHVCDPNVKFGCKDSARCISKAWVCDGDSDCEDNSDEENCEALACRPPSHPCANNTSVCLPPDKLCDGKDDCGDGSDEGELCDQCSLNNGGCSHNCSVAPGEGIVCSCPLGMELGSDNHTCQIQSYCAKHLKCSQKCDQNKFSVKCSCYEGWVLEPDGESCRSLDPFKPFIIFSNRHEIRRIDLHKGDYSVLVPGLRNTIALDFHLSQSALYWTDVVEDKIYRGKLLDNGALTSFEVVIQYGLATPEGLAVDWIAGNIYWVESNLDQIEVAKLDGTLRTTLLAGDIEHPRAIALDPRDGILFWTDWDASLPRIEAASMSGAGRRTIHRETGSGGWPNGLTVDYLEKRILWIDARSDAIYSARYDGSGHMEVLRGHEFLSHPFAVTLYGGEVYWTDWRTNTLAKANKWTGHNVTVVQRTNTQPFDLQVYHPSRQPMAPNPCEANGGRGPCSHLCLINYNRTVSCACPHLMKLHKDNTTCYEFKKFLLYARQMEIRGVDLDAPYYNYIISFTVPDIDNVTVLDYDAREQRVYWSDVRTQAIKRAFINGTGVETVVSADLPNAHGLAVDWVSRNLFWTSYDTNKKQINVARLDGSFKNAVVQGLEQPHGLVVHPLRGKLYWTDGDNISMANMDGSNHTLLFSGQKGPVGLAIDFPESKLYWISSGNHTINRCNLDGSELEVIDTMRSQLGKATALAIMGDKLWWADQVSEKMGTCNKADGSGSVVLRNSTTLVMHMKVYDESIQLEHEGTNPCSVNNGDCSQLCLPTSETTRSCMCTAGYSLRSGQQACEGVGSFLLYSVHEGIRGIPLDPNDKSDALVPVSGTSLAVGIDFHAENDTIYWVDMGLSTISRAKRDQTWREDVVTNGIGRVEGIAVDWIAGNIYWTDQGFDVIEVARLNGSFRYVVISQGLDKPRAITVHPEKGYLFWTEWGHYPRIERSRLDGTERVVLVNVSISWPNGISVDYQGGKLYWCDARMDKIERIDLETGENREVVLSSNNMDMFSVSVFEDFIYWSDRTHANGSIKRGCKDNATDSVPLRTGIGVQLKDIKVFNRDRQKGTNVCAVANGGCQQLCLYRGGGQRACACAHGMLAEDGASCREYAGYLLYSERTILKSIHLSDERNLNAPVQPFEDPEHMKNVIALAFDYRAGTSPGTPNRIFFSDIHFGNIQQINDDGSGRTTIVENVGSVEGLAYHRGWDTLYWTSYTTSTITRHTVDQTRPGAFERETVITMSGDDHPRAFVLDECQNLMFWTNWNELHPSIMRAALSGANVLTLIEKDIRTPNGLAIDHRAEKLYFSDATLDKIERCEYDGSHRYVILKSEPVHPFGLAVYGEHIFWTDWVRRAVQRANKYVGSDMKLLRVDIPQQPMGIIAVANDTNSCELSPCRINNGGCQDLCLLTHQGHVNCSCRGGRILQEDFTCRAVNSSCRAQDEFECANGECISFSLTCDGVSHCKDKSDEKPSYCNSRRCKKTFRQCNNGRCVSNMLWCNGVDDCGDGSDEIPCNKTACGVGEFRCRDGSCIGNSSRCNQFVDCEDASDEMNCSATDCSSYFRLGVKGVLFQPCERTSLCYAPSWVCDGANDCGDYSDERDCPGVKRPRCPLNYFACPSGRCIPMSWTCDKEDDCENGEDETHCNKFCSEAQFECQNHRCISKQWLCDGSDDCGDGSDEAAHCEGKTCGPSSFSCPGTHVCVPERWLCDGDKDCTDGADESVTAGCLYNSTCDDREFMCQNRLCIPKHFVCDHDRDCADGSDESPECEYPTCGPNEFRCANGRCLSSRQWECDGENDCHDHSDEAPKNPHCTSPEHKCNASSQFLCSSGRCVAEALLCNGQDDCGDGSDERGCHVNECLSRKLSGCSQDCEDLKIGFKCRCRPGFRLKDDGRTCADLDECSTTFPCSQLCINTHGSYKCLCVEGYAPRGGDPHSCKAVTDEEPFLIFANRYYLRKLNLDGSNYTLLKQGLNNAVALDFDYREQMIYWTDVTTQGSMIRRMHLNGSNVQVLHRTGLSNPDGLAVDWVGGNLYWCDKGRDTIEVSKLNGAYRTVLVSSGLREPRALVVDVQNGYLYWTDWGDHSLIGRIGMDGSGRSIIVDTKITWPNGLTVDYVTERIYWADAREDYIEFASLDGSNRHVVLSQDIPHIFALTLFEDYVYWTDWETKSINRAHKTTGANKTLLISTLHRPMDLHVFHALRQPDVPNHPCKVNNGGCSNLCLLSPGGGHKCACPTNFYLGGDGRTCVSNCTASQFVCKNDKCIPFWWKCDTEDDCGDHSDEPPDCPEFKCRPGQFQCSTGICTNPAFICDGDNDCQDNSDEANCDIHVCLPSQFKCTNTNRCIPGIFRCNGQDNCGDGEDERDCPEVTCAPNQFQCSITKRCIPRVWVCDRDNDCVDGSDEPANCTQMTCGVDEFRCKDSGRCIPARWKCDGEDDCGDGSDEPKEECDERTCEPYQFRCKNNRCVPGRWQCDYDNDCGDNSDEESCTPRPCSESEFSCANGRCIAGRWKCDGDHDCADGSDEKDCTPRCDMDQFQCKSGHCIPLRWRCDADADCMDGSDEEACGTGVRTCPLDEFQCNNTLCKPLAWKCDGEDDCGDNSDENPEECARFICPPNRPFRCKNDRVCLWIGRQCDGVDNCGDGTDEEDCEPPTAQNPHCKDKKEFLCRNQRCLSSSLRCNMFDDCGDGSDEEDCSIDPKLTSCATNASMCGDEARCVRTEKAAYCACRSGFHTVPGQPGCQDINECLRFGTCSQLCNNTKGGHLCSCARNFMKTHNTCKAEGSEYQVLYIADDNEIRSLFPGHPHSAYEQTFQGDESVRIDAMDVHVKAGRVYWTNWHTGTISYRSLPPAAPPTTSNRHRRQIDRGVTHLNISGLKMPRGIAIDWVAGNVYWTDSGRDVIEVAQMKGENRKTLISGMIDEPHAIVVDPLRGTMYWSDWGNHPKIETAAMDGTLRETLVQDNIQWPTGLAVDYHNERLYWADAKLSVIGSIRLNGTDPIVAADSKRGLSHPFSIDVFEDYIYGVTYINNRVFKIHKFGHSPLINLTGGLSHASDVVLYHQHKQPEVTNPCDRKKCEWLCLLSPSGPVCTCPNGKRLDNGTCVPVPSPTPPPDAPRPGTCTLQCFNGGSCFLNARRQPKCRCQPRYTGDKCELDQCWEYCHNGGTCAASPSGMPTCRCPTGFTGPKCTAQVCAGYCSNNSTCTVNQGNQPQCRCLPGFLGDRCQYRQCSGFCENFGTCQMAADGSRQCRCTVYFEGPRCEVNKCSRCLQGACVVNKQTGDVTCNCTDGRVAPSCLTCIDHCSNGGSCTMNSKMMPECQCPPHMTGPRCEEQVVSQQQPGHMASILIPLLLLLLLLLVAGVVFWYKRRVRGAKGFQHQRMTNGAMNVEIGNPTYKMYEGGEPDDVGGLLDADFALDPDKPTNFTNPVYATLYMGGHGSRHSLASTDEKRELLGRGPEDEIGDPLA

β-actin = β-actin (mouse (endogenous in bEnd3), UniProt P60710 1-375)
apolipoprotein E = biological target: B1
heavy chain of clathrin = biological target: T4, heavy chain of clathrin (mouse (endogenous in bEnd3), UniProt Q68FD5 1-1675)
T4 construct: clathrin heavy chain, endogenous in mouse brain endothelial cells (bEnd3); source: endogenous, bEnd3 mouse brain endothelial cells (fixed, permeabilized)

dynamin-2 = biological target: T1, dynamin-2
EEA-1 = biological target: T2, EEA-1

PLA dots per cell [1] | PLA dots per cell (β-actin) | PLA dots per cell (apolipoprotein E) | PLA dots per cell (heavy chain of clathrin) | PLA dots per cell (dynamin-2) | PLA dots per cell (EEA-1) | Binder
~80 dots per cell | – | – | – | – | – | B1
~250 dots per cell | ~150 dots per cell | ~250 dots per cell | ~150 dots per cell | ~150 dots per cell | < 20 dots per cell | syndapin-2 (natural protein, mouse (endogenous in bEnd3), UniProt Q9WVE8 1-486, looked up, syndapin-2 (PACSIN-2), F-BAR protein, endogenous in mouse brain endothelial cells (bEnd3); also called PACSIN-2; Syn-2; source: endogenous, bEnd3 mouse brain endothelial cells (fixed, permeabilized)) MSVTYDDSVGVEVSSDSFWEVGNYKRTVKRIDDGHRLCGDLMNCLHERARIEKAYAQQLTEWARRWRQLVEKGPQYGTVEKAWIAVMSEAERVSELHLEVKASLMNEDFEKIKNWQKEAFHKQMMGGFKETKEAEDGFRKAQKPWAKKLKEVEAAKKAHHTACKEEKLAISREANSKADPSLNPEQLKKLQDKIEKCKQDVLKTKDKYEKSLKELDQTTPQYMENMEQVFEQCQQFEEKRLRFFREVLLEVQKHLDLSNVASYKTIYRELEQSIKAADAVEDLRWFRANHGPGMAMNWPQFEEWSADLNRTLSRREKKKAVDGVTLTGINQTGDQSGQNKPGSNLSVPSNPAQSTQLQSSYNPFEDEDDTGSSISEKEDIKAKNVSSYEKTQTYPTDWSDDESNNPFSSTDANGDSNPFDEDTTSGTEVRVRALYDYEGQEHDELSFKAGDELTKIEDEDEQGWCKGRLDSGQVGLYPANYVEAIQ
